Usually IC50 stands for the midpoint of a concentration-inhibition curve.

Our source for the IC50 values is patent US20200140501A1 (published 2020).

The experiment addresses T1, hNGAL lipocalin mutein SEQ ID NO: 1.
T1 chain: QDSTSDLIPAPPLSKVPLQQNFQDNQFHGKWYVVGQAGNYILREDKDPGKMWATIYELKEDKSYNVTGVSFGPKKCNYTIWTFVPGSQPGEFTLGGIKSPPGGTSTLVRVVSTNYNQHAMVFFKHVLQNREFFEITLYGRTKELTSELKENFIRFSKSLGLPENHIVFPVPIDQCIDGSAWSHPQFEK
The experiment can be described thus: solution competition ELISA: ligand titrated against 0.1 nM SEQ ID NO: 1, free mutein captured on immobilised hAng-2. The protocol: In the following detailed experimental protocol, incubation and washing steps were performed as described above in the competition ELISA protocol (see Example 5).
The residual supernatants were discarded and 20 μl HRP-labeled anti-lipocalin-mutein antibody was added at a predetermined optimal concentration in PBS-T/BSA and incubated for 1 h at RT. […] After washing, 20 μl fluorogenic HRP substrate (Quantablue, Pierce) was added to each well, and the reaction was allowed to proceed for 60 minutes. The fluorescence intensity of every well on the plate was read using a Genios Plus Microplate reader (Tecan).
(In an ELISA, binding on a coated surface is turned into a signal by an enzyme label.)

B1: human angiopoietin-1 (Ang-1) (ligand, UniProt Q15389 20-498, looked up)
chain: SNQRRSPENSGRRYNRIQHGQCAYTFILPEHDGNCRESTTDQYNTNALQRDAPHVEPDFSSQKLQHLEHVMENYTQWLQKLENYIVENMKSEMAQIQQNAVQNHTATMLEIGTSLLSQTAEQTRKLTDVETQVLNQTSRLEIQLLENSLSTYKLEKQLLQQTNEILKIHEKNSLLEHKILEMEGKHKEELDTLKEEKENLQGLVTRQTYIIQELEKQLNRATTNNSVLQKQQLELMDTVHNLVNLCTKEGVLLKGGKREEEKPFRDCADVYQAGFNKSGIYTIYINNMPEPKKVFCNMDVNGGGWTVIQHREDGSLDFQRGWKEYKMGFGNPSGEYWLGNEFIFAITSQRQYMLRIELMDWEGNRAYSQYDRFHIGNEKQNYRLYLKGHTGTAGKQSSLILHGADFSTKDADNDNCMCKCALMLTGGWWFDACGPSNLNGMFYTAGQNHGKLNGIKWHYFKGPSYSLRSTTMMIRPLDF
notes: also called hAng-1; human Ang-1
In turn, B1 registered an IC50 above 100 nM.
